Data as given in the supplement of paper PMC10567573.

B1: ANKRD40 (parent)
chain: SLRENDFIEIELDRQELTYQELLR

Variants of: B1
Experiment: protein stability index of a GFP-peptide fusion (GPS, HEK-293T) (PSI 1-6); higher = more stable
Details: c terminus: a fixed tail appended
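Note: lentivirally expressed fusions sorted by FACS into six bins by GFP to DsRed ratio, PSI derived from sequencing read proportions per bin multiplied by bin number.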

Variant | protein stability index
SLRDNDFIEIELDRQELTYQELLR | 3.25
SLRFNDFIEIELDRQELTYQELLR | 2.41
SLRGNDFIEIELDRQELTYQELLR | 2.57
SLRHNDFIEIELDRQELTYQELLR | 2.84
SLRINDFIEIELDRQELTYQELLR | 2.02
SLRKNDFIEIELDRQELTYQELLR | 2.16
SLRLNDFIEIELDRQELTYQELLR | 2.05
SLRMNDFIEIELDRQELTYQELLR | 2.55
SLRNNDFIEIELDRQELTYQELLR | 2.92
SLRPNDFIEIELDRQELTYQELLR | 3.21
SLRQNDFIEIELDRQELTYQELLR | 2.97
SLRRNDFIEIELDRQELTYQELLR | 2.31
SLRSNDFIEIELDRQELTYQELLR | 3.21
SLRTNDFIEIELDRQELTYQELLR | 2.7
SLRVNDFIEIELDRQELTYQELLR | 1.83
SLRWNDFIEIELDRQELTYQELLR | 2.19
SLRYNDFIEIELDRQELTYQELLR | 2.17
SLREADFIEIELDRQELTYQELLR | 2.57
SLRECDFIEIELDRQELTYQELLR | 2.48
SLREDDFIEIELDRQELTYQELLR | 2.82
SLREEDFIEIELDRQELTYQELLR | 2.78
SLREFDFIEIELDRQELTYQELLR | 2.2
SLREGDFIEIELDRQELTYQELLR | 3.03
SLREHDFIEIELDRQELTYQELLR | 2.62

Variant | protein stability index
SLREIDFIEIELDRQELTYQELLR | 2.33
SLREKDFIEIELDRQELTYQELLR | 2.88
SLRELDFIEIELDRQELTYQELLR | 2.14
SLREMDFIEIELDRQELTYQELLR | 2.4
SLREPDFIEIELDRQELTYQELLR | 3.34
SLREQDFIEIELDRQELTYQELLR | 2.96
SLRERDFIEIELDRQELTYQELLR | 2.79
SLRESDFIEIELDRQELTYQELLR | 2.77
SLRETDFIEIELDRQELTYQELLR | 3.09
SLREVDFIEIELDRQELTYQELLR | 2.4
SLREWDFIEIELDRQELTYQELLR | 1.72
SLREYDFIEIELDRQELTYQELLR | 2.75
SLRENAFIEIELDRQELTYQELLR | 2.42
SLRENCFIEIELDRQELTYQELLR | 2.28
SLRENEFIEIELDRQELTYQELLR | 2.97
SLRENFFIEIELDRQELTYQELLR | 2.12
SLRENGFIEIELDRQELTYQELLR | 2.82
SLRENHFIEIELDRQELTYQELLR | 2.57
SLRENIFIEIELDRQELTYQELLR | 1.28
SLRENKFIEIELDRQELTYQELLR | 2.64
SLRENLFIEIELDRQELTYQELLR | 2.15
SLRENMFIEIELDRQELTYQELLR | 1.66
SLRENNFIEIELDRQELTYQELLR | 2.99
SLRENPFIEIELDRQELTYQELLR | 2.97

Variant | protein stability index
SLRENQFIEIELDRQELTYQELLR | 2.76
SLRENRFIEIELDRQELTYQELLR | 3.14
SLRENSFIEIELDRQELTYQELLR | 2.55
SLRENTFIEIELDRQELTYQELLR | 2.34
SLRENVFIEIELDRQELTYQELLR | 1.64
SLRENWFIEIELDRQELTYQELLR | 2.31
SLRENYFIEIELDRQELTYQELLR | 1.9
SLRENDAIEIELDRQELTYQELLR | 4.21
SLRENDCIEIELDRQELTYQELLR | 3.87
SLRENDDIEIELDRQELTYQELLR | 4.24
SLRENDEIEIELDRQELTYQELLR | 4.46
SLRENDGIEIELDRQELTYQELLR | 4.18
SLRENDHIEIELDRQELTYQELLR | 3.96
SLRENDIIEIELDRQELTYQELLR | 2.91
SLRENDKIEIELDRQELTYQELLR | 4.2
SLRENDLIEIELDRQELTYQELLR | 3.79
SLRENDMIEIELDRQELTYQELLR | 3.33
SLRENDNIEIELDRQELTYQELLR | 4.05
SLRENDPIEIELDRQELTYQELLR | 4.05
SLRENDQIEIELDRQELTYQELLR | 4.17
SLRENDRIEIELDRQELTYQELLR | 3.69
SLRENDSIEIELDRQELTYQELLR | 4.03
SLRENDTIEIELDRQELTYQELLR | 3.99
SLRENDVIEIELDRQELTYQELLR | 3.59

Variant | protein stability index
SLRENDWIEIELDRQELTYQELLR | 3.03
SLRENDYIEIELDRQELTYQELLR | 3.54
SLRENDFAEIELDRQELTYQELLR | 3.83
SLRENDFCEIELDRQELTYQELLR | 3.57
SLRENDFDEIELDRQELTYQELLR | 4.56
SLRENDFEEIELDRQELTYQELLR | 4.46
SLRENDFFEIELDRQELTYQELLR | 2.56
SLRENDFGEIELDRQELTYQELLR | 3.88
SLRENDFHEIELDRQELTYQELLR | 3.99
SLRENDFKEIELDRQELTYQELLR | 4.02
SLRENDFLEIELDRQELTYQELLR | 3.77
SLRENDFMEIELDRQELTYQELLR | 4.11
SLRENDFNEIELDRQELTYQELLR | 4.1
SLRENDFPEIELDRQELTYQELLR | 3.89
SLRENDFQEIELDRQELTYQELLR | 4.23
SLRENDFREIELDRQELTYQELLR | 3.89
SLRENDFSEIELDRQELTYQELLR | 3.34
SLRENDFTEIELDRQELTYQELLR | 4.23
SLRENDFVEIELDRQELTYQELLR | 3.62
SLRENDFWEIELDRQELTYQELLR | 3.26
SLRENDFYEIELDRQELTYQELLR | 3.28
SLRENDFIAIELDRQELTYQELLR | 2.58
